Sequences and labels used below:
B1: GpH7-A5/GpH7-B3 variant K334_01G/GpL16-k0 (antibody, human IgG1, kappa)
heavy 1: not shown
heavy 2: not shown
light: DIVMTQSPLSLPVTPGEPASISCQASESLVHSNRNTYLHWYLQKPGQSPQLLIYKVSNRFSGVPDRFSGSGSGTDFTLKISRVEAEDVGVYYCSQNTHVPPTFGQGTKVEIERTVAAPSVFIFPPSDEQLKSGTASVVCLLNNFYPREAKVQWKVDNALQSGNSQESVTEQDSKDSTYSLSSTLTLSKADYEKHKVYACEVTHQGLSSPVTKSFNRGEC
notes: Alteration in one H chain only; also called He Ab K334_01G
B2: GpH7-A5/GpH7-B3 variant K326_08L/GpL16-k0 (antibody, human IgG1, kappa)
heavy 1: not shown
heavy 2: not shown
light: DIVMTQSPLSLPVTPGEPASISCQASESLVHSNRNTYLHWYLQKPGQSPQLLIYKVSNRFSGVPDRFSGSGSGTDFTLKISRVEAEDVGVYYCSQNTHVPPTFGQGTKVEIERTVAAPSVFIFPPSDEQLKSGTASVVCLLNNFYPREAKVQWKVDNALQSGNSQESVTEQDSKDSTYSLSSTLTLSKADYEKHKVYACEVTHQGLSSPVTKSFNRGEC
notes: Alteration in one H chain only; also called He Ab K326_08L
B3: GpH7-A5/GpH7-B3 variant K326_09D/GpL16-k0 (antibody, human IgG1, kappa)
heavy 1: not shown
heavy 2: not shown
light: DIVMTQSPLSLPVTPGEPASISCQASESLVHSNRNTYLHWYLQKPGQSPQLLIYKVSNRFSGVPDRFSGSGSGTDFTLKISRVEAEDVGVYYCSQNTHVPPTFGQGTKVEIERTVAAPSVFIFPPSDEQLKSGTASVVCLLNNFYPREAKVQWKVDNALQSGNSQESVTEQDSKDSTYSLSSTLTLSKADYEKHKVYACEVTHQGLSSPVTKSFNRGEC
notes: Alteration in one H chain only; also called He Ab K326_09D
B4: GpH7-A5/GpH7-B3 variant K326_19Q/GpL16-k0 (antibody, human IgG1, kappa)
heavy 1: not shown
heavy 2: not shown
light: DIVMTQSPLSLPVTPGEPASISCQASESLVHSNRNTYLHWYLQKPGQSPQLLIYKVSNRFSGVPDRFSGSGSGTDFTLKISRVEAEDVGVYYCSQNTHVPPTFGQGTKVEIERTVAAPSVFIFPPSDEQLKSGTASVVCLLNNFYPREAKVQWKVDNALQSGNSQESVTEQDSKDSTYSLSSTLTLSKADYEKHKVYACEVTHQGLSSPVTKSFNRGEC
notes: Alteration in one H chain only; also called He Ab K326_19Q
B5: GpH7-A5/GpH7-B3 variant K326_04F/GpL16-k0 (antibody, human IgG1, kappa)
heavy 1: not shown
heavy 2: not shown
light: DIVMTQSPLSLPVTPGEPASISCQASESLVHSNRNTYLHWYLQKPGQSPQLLIYKVSNRFSGVPDRFSGSGSGTDFTLKISRVEAEDVGVYYCSQNTHVPPTFGQGTKVEIERTVAAPSVFIFPPSDEQLKSGTASVVCLLNNFYPREAKVQWKVDNALQSGNSQESVTEQDSKDSTYSLSSTLTLSKADYEKHKVYACEVTHQGLSSPVTKSFNRGEC
notes: Alteration in one H chain only; also called He Ab K326_04F
B6: GpH7-A5/GpH7-B3 variant I336_16H/GpL16-k0 (antibody, human IgG1, kappa)
heavy 1: not shown
heavy 2: not shown
light: DIVMTQSPLSLPVTPGEPASISCQASESLVHSNRNTYLHWYLQKPGQSPQLLIYKVSNRFSGVPDRFSGSGSGTDFTLKISRVEAEDVGVYYCSQNTHVPPTFGQGTKVEIERTVAAPSVFIFPPSDEQLKSGTASVVCLLNNFYPREAKVQWKVDNALQSGNSQESVTEQDSKDSTYSLSSTLTLSKADYEKHKVYACEVTHQGLSSPVTKSFNRGEC
notes: Alteration in one H chain only; also called He Ab I336_16H
B7: GpH7-A5/GpH7-B3 variant I336_15Y/GpL16-k0 (antibody, human IgG1, kappa)
heavy 1: not shown
heavy 2: not shown
light: DIVMTQSPLSLPVTPGEPASISCQASESLVHSNRNTYLHWYLQKPGQSPQLLIYKVSNRFSGVPDRFSGSGSGTDFTLKISRVEAEDVGVYYCSQNTHVPPTFGQGTKVEIERTVAAPSVFIFPPSDEQLKSGTASVVCLLNNFYPREAKVQWKVDNALQSGNSQESVTEQDSKDSTYSLSSTLTLSKADYEKHKVYACEVTHQGLSSPVTKSFNRGEC
notes: Alteration in one H chain only; also called He Ab I336_15Y
B8: GpH7-A5/GpH7-B3 variant K326_07I/GpL16-k0 (antibody, human IgG1, kappa)
heavy 1: not shown
heavy 2: not shown
light: DIVMTQSPLSLPVTPGEPASISCQASESLVHSNRNTYLHWYLQKPGQSPQLLIYKVSNRFSGVPDRFSGSGSGTDFTLKISRVEAEDVGVYYCSQNTHVPPTFGQGTKVEIERTVAAPSVFIFPPSDEQLKSGTASVVCLLNNFYPREAKVQWKVDNALQSGNSQESVTEQDSKDSTYSLSSTLTLSKADYEKHKVYACEVTHQGLSSPVTKSFNRGEC
notes: Alteration in one H chain only; also called He Ab K326_07I
B9: GpH7-A5/GpH7-B3 variant K326_10E/GpL16-k0 (antibody, human IgG1, kappa)
heavy 1: not shown
heavy 2: not shown
light: DIVMTQSPLSLPVTPGEPASISCQASESLVHSNRNTYLHWYLQKPGQSPQLLIYKVSNRFSGVPDRFSGSGSGTDFTLKISRVEAEDVGVYYCSQNTHVPPTFGQGTKVEIERTVAAPSVFIFPPSDEQLKSGTASVVCLLNNFYPREAKVQWKVDNALQSGNSQESVTEQDSKDSTYSLSSTLTLSKADYEKHKVYACEVTHQGLSSPVTKSFNRGEC
notes: Alteration in one H chain only; also called He Ab K326_10E
B10: GpH7-A5/GpH7-B3 variant K326_06M/GpL16-k0 (antibody, human IgG1, kappa)
heavy 1: not shown
heavy 2: not shown
light: DIVMTQSPLSLPVTPGEPASISCQASESLVHSNRNTYLHWYLQKPGQSPQLLIYKVSNRFSGVPDRFSGSGSGTDFTLKISRVEAEDVGVYYCSQNTHVPPTFGQGTKVEIERTVAAPSVFIFPPSDEQLKSGTASVVCLLNNFYPREAKVQWKVDNALQSGNSQESVTEQDSKDSTYSLSSTLTLSKADYEKHKVYACEVTHQGLSSPVTKSFNRGEC
notes: Alteration in one H chain only; also called He Ab K326_06M
B11: GpH7-A5/GpH7-B3 variant K326_03V/GpL16-k0 (antibody, human IgG1, kappa)
heavy 1: not shown
heavy 2: not shown
light: DIVMTQSPLSLPVTPGEPASISCQASESLVHSNRNTYLHWYLQKPGQSPQLLIYKVSNRFSGVPDRFSGSGSGTDFTLKISRVEAEDVGVYYCSQNTHVPPTFGQGTKVEIERTVAAPSVFIFPPSDEQLKSGTASVVCLLNNFYPREAKVQWKVDNALQSGNSQESVTEQDSKDSTYSLSSTLTLSKADYEKHKVYACEVTHQGLSSPVTKSFNRGEC
notes: Alteration in one H chain only; also called He Ab K326_03V

T1 sequence (P12314 16-292): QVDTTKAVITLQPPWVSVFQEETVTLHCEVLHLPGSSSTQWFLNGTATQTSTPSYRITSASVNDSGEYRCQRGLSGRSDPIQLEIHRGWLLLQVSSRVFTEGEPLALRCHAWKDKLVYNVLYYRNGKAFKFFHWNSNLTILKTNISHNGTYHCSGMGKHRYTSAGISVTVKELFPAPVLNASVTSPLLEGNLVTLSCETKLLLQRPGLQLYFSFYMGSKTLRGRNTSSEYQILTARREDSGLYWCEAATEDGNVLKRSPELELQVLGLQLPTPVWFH

This assay addresses T1, FcγRIa (human, UniProt P12314 16-292).
T1 construct: extracellular domain; also called FcgRI; FcgRIa; not shown: His tag attached to the C terminus
Put plainly: SPR (Biacore), relative binding; control HeCon Ab GpH7-A5/GpH7-B3/GpL16-k0.
Turning to B1, the He/Con_1a is 104 % of control (=100).
Take B2: the He/Con_1a is 100 % of control (=100).
The result for B3 reads 103 % of control (=100).
Consider B4, for which the He/Con_1a is 102 % of control (=100).
The result for B5 reads 102 % of control (=100); that for B6, 101 % of control (=100); that for B7, 103 % of control (=100).
In the case of B8, the He/Con_1a was 101 % of control (=100).
In the case of B9, the He/Con_1a was 104 % of control (=100).
The result for B10 reads 102 % of control (=100); that for B11, 102 % of control (=100).

These data come from US20150344570A1 (published 2015).
